{
  "source": "paper PMC11672316",
  "about": "“Identification of ANXA1 as a Novel Upstream Negative Regulator of Notch1 Function in AML” (Advanced Science, 2024)",
  "molecules": {"B1": {"name": "GST-tagged C-terminal domain of ANXA1 (domain or fragment)", "chain": "PSSDVAALHKAIMVKGVDEATIIDILTKRNNAQRQQIKAAYLQETGKPLDETLKKALTGHLEEVVLALLKTPAQFDADELRAAMKGLGTDEDTLIEILASRTNKEIRDINRVYREELKRDLAKDITSDTSGDFRNALLSLAKGDRSEDFGVNEDLADSDARALYEAGERRKGTDVNVFNTILTTRSYPQLRRVFQKYTKYSKHDMNKVLDLELKGDIEKCLTAIVKCATSKPAFFAEKLHQAMKGVGTRHKALIRIMVSRSEIDMNDIKAFYQKMYGISLCQAILDETKGDYEKILVALCG"}, "B2": {"name": "GST-tagged full-length Annexin A1 (ANXA1) (natural protein)", "chain": "MAMVSEFLKQAWFIENEEQEYVQTVKSSKGGPGSAVSPYPTFNPSSDVAALHKAIMVKGVDEATIIDILTKRNNAQRQQIKAAYLQETGKPLDETLKKALTGHLEEVVLALLKTPAQFDADELRAAMKGLGTDEDTLIEILASRTNKEIRDINRVYREELKRDLAKDITSDTSGDFRNALLSLAKGDRSEDFGVNEDLADSDARALYEAGERRKGTDVNVFNTILTTRSYPQLRRVFQKYTKYSKHDMNKVLDLELKGDIEKCLTAIVKCATSKPAFFAEKLHQAMKGVGTRHKALIRIMVSRSEIDMNDIKAFYQKMYGISLCQAILDETKGDYEKILVALCGGN"}, "B3": {"name": "Full-length ANXA1: purified full-length Annexin A1 protein (protein)", "chain": "B2 chain", "modifications": "left off: GST, end not stated, kept", "notes": "purified full-length Annexin A1 protein"}, "B4": {"name": "GST-tagged ANXA1: GST-tagged fusion protein of full-length ANXA1 (protein)", "chain": "B2 chain", "modifications": "left off: GST, end not stated, kept"}, "B5": {"name": "ANXA1: Annexin A1, Ca2+-dependent phospholipid-binding protein (protein)", "chain": "B2 chain", "modifications": "left off: GST, end not stated, kept"}, "B6": {"name": "NICD-5l peptide (peptide)", "peptide": "KSALHWAAAVNNVDAAVVLLKNGANKDMQNNR", "notes": "also called NICD-5 linear peptide; source: synthetic peptide (solid phase, Wang resin)"}, "B7": {"name": "NICD-5c peptide (peptide)", "peptide": "KSACHWAAAVNNVDAAVVCLKNGANKDMQNNR-OH", "modifications": "bridge 4-19; also: cyclisation chemistry not given here", "notes": "also called NICD-5 cyclic peptide; source: synthetic peptide (solid phase, Wang resin)"}},
  "key": {"ANXA1": {"target": "T1, ANXA1 (Homo sapiens, UniProt P04083)", "T1 construct": "made in house; host or cells: E. coli BL21", "T1 sequence (P04083 1-346)": "B2 chain", "assay": "BLI analysis, NICD peptides to immobilized ANXA1", "type": "binding", "conditions": "for Koff: Octet Red96, ANXA1 immobilized on SSA sensor, peptides in SD buffer", "procedure": "(§1) AlphaFold2 and ClusPro servers were used to dock NICD and ANXA1.^[ [35] ^] The predictions were tested by GST‐pull down assay, bio‐layer interferometry (BLI) analysis, and chemical cross‐linking coupled with mass spectrometry. Details of these procedures are described in Materials and Methods (Supporting Information).\n(§2) For bio‐layer interferometry (BLI) analyses performed by Octet Red96 system (Sartorius), purified NICD protein was immobilized on SA sensor (Sartorius) after labeling with Sulfo-NHS-Biotin (EZ-Link) and dialysis. To determine binding kinetics, five concentrations of purified ANXA1 protein were prepared with PBST (PBS containing 0.02% Tween-20) and measured from low to high concentrations by NICD-immobilized biosensors to obtain the association and dissociation sensorgram data. For detection of the interaction between protein and small molecular peptides, purified ANXA1 protein was immobilized on SSA sensor (Sartorius) to detect the binding kinetics of NICD peptides, which were diluted in SD buffer (PBST plus 0.1% w v^-1 BSA). The kinetic parameters Kon, Koff and KD were determined using Octct data analysis software."}, "[1]": {"target": "intracellular domain of Notch1 (NICD), protein used in BLI and cross-linking", "assay": "BLI; NICD with full-length ANXA1 or the C-terminal domain of ANXA1 at increasing concentrations; who was immobilised is not told in the main text (scheme in Figure 2D)"}, "NICD": {"system": "NICD", "assay": "BLI analysis, ANXA1 proteins to immobilized NICD", "type": "binding, human", "conditions": "for binding affinity with NICD: Figure 2E; for Koff / Kon / Kd: Octet Red96, biotinylated NICD immobilized on SA sensor; for Koff / Kon: ANXA1 protein in PBST; for Kd: five concentrations of ANXA1 protein in PBST (PBS containing 0.02% Tween-20)", "procedure": "as §1, §2"}, "Notch1": {"system": "Notch1", "assay": "GST-pull down assay of Notch1 from KG1a cell lysate", "type": "binding, human", "conditions": "western blotting, 4°C overnight; Figure S4C", "procedure": "For GST-pull down assay, the purified GST fusion proteins were incubated with precleared GST resin (Solarbio) for 5 hours at 4°C. The precipitation was washed four times with PBS and captured the Notch1 protein from prepared cell lysates at 4°C overnight. The complexes were washed four times with PBS before being eluted in SDS-gel loading buffer and detected by western blotting.\nFigure S4. GST pull down analysis of the interaction between ANXA1 and Notch1, related to Figure 2. (A) Schematic diagram of GST-tagged fusion protein structure of ANXA1 full-length, C-terminal, and N-terminal domain. (B) Coomassie blue-stained SDS gel image of GST-tagged fusion protein of full-length ANXA1, and N-terminal, and C-terminal domains of ANXA1. (C) Western blotting of Notch1 and ANXA1 expression in complexes pulled-down by GST-ANXA1 in sgANXA1#3 and sgControl cells of KG1a."}, "NICD (Δ2,050−2,060)": {"system": "NICD (Δ2,050−2,060)", "assay": "BLI analysis of ANXA1 binding NICD (Δ2,050−2,060)", "design": "species or system human", "conditions": "Figure S6E", "procedure": "as §2\nFigure S6. ANXA1 (214−228) and NICD (2,050−2,060) mediate the protein-protein interaction, related to Figure 2J. (A) mRNA expression of ANXA1 detected by qPCR in KG1a-sgANXA1 and HL60-sgANXA1 cells. […] (C) The cell proliferation ability detected by CCK8 assay after 96 hours of culture of KG1a or HL60 cells stably transfected with sgANXA1 or sgControl plasmids. (D) The cell proliferation ability detected by CCK8 assay after 96 hours of culture of KG1a-sgANXA1 and HL60-sgANXA1 cells transiently transfected with ANXA1 (Δ214−228) plasmid. […]"}, "[2]": {"target": "T2, GST-tagged full-length ANXA1 (Annexin A1) (human, UniProt P04083 1-346)", "T2 construct": "Annexin A1 (ANXA1), human, full length; In the BLI with peptides it was immobilised on an SSA sensor; also called GST-ANXA1; source: E. coli BL21, purified (GST resin)", "T2 sequence (looked up)": "B2 chain", "assay": "BLI; Octet Red96; purified ANXA1 protein immobilised on SSA sensor; NICD peptides diluted in SD buffer (PBST plus 0.1% w/v BSA)", "conditions": "both partners purified"}},
  "note": "Bridge positions count the residues as written; N and C are the ends. Ends that are not written are not given here. Peptide text beside a SMILES is read from it.",
  "data": [
    {"molecule": "CSCC[C@H](NC(=O)[C@H](CC(=O)O)NC(=O)[C@H](CCCCN)NC(=O)[C@H](CC(N)=O)NC(=O)[C@H](C)NC(=O)CNC(=O)[C@H](CC(N)=O)NC(=O)[C@H](CCCCN)NC(=O)[C@H](CC(C)C)NC(=O)[C@@H]1CSSC[C@H](NC(=O)[C@H](C)NC(=O)[C@H](CO)NC(=O)[C@@H](N)CCCCN)C(=O)N[C@@H](Cc2c[nH]cn2)C(=O)N[C@@H](Cc2c[nH]c3ccccc23)C(=O)N[C@@H](C)C(=O)N[C@@H](C)C(=O)N[C@@H](C)C(=O)N[C@@H](C(C)C)C(=O)N[C@@H](CC(N)=O)C(=O)N[C@@H](CC(N)=O)C(=O)N[C@@H](C(C)C)C(=O)N[C@@H](CC(=O)O)C(=O)N[C@@H](C)C(=O)N[C@@H](C)C(=O)N[C@@H](C(C)C)C(=O)N[C@@H](C(C)C)C(=O)N1)C(=O)N[C@@H](CCC(N)=O)C(=O)N[C@@H](CC(N)=O)C(=O)N[C@@H](CC(N)=O)C(=O)N[C@@H](CCCNC(=N)N)C(=O)O", "note": "[NICD-5c] (H-KSACHWAAAVNNVDAAVVCLKNGANKDMQNNR-OH; disulfide 4-19)", "values": [
      {"measurement": "Koff", "setting": "ANXA1", "result": "1.08×10^-2 1 s^-1"}
    ]},
    {"molecule": "KSALHWAAAVNNVDAAVVLLKNGANKDMQNNR [NICD-5l, linear peptide, NICD 2029~2060]", "values": [
      {"measurement": "inhibition of cell proliferation", "setting": "HL60 cells; HL60, CCK8, 72 h, Figure 2K, means ± s.e.m. of three independent experiments", "result": "significantly inhibited the proliferation of KG1a and HL60 cells in a dose‐dependent manner"},
      {"measurement": "inhibition of cell proliferation", "setting": "KG1a cells; KG1a, CCK8, 72 h, Figure 2K, means ± s.e.m. of three independent experiments", "result": "significantly inhibited the proliferation of KG1a and HL60 cells in a dose‐dependent manner"},
      {"measurement": "binding affinity with GST-ANXA1", "setting": "ANXA1; Figures 2I and S5B", "result": "increased the binding affinity with GST‐ANXA1 in a dose‐dependent manner"},
      {"measurement": "Koff", "setting": "ANXA1", "result": "1.27×10^-2 1 s^-1"}
    ]},
    {"molecule": "RKKRRQRRR [TAT, reference compound]", "values": [
      {"measurement": "cell damage", "setting": "HL60 cells", "result": "barely caused cell damage"},
      {"measurement": "cell damage", "setting": "KG1a cells", "result": "barely caused cell damage"}
    ]},
    {"molecule": "B1", "values": [
      {"measurement": "Kd", "setting": "[1]", "result": 5.32, "unit": "µM"},
      {"measurement": "binding affinity with NICD", "setting": "NICD", "result": "dose‐dependently increased the binding affinity with NICD"},
      {"measurement": "Koff", "setting": "NICD", "result": "1.68×10^-2 1 s^-1"},
      {"measurement": "Kon", "setting": "NICD", "result": "3.15×10^3 1 Ms^-1"},
      {"measurement": "Kd", "setting": "NICD", "result": 5.32, "unit": "µM"}
    ]},
    {"molecule": "B2", "values": [
      {"measurement": "Kd", "setting": "[1]", "result": 18.4, "unit": "µM"}
    ]},
    {"molecule": "B3", "values": [
      {"measurement": "binding affinity with NICD", "setting": "NICD", "result": "dose‐dependently increased the binding affinity with NICD"},
      {"measurement": "Koff", "setting": "NICD", "result": "2.88×10^-2 1 s^-1"},
      {"measurement": "Kon", "setting": "NICD", "result": "1.57×10^3 1 Ms^-1"},
      {"measurement": "Kd", "setting": "NICD", "result": 18.4, "unit": "µM"}
    ]},
    {"molecule": "B4", "values": [
      {"measurement": "pull-down of Notch1 from cell lysate", "setting": "Notch1", "result": "Notch1 in the cell lysate could be pulled down by GST‐tagged ANXA1"}
    ]},
    {"molecule": "B5", "values": [
      {"measurement": "interaction with NICD lacking 2050–2060", "setting": "NICD (Δ2,050−2,060)", "result": "the interaction between NICD and ANXA1 was also lost due to the deletion of 2050–2060 amino acid domain of NICD"}
    ]},
    {"molecule": "B6", "values": [
      {"measurement": "Kd", "setting": "[2]", "result": 154, "unit": "µM"}
    ]},
    {"molecule": "B7", "values": [
      {"measurement": "Kd", "setting": "[2]", "result": 223, "unit": "µM"}
    ]}
  ]
}
